Measured values from US20250282885A1 (VST BIO, published 2025).

Experiments:
human Sdc2 [1] = biological target: T1, human Sdc2 (human, UniProt P34741 19-144, limits assumed); assay: Octet tandem binning; saturating Ab f10 19838-10-I12-A
T1 construct: Antigen of the Octet tandem binning, loaded on biosensors at 100 nM; also called huSdc2; hSdc2

human Sdc2 [2] = biological target: T1, human Sdc2; assay: Octet tandem binning; saturating Ab f9 19838-6-E17-A
human Sdc2 [3] = biological target: T1, human Sdc2; assay: Octet tandem binning; saturating Ab m1 19838-20H19-AB
pig Sdc2 = biological target: T2, pig Sdc2 (pig, UniProt F1S0L5 19-145); assay: Octet BLI, heading box over the sensorgram; the box prints nm, the table gives 1.50E-08 M
T2 construct: also called pSdc2
Description: (§1) In order to characterize the binding affinity and in vivo/in vitro functional ability of the twelve clones generated by the previous studies and disclosed in Table 1, a series of assays were performed on each clone. These assays measured the affinity of each antibody clone for human, pig, and mouse Sdc2 using an Octet® binding assay system. Additionally, the functional ability of each clone to inhibit VEGFA-driven permeability (see Santiago, et al. (2021) J Am Heart Assoc. 10(18):e020521) was assessed in two therapeutic settings: a “prevention” study in which three concentrations of antibody (5 μg/ml, 10 μg/ml, 15 μg/ml, 20 μg/ml, and/or 40 μg/ml depending on the study) were pre-incubated for an hour before administration of 100 ng/ml of VEGFA, and a “treatment” study in which 3 hours of pre-treatment with 100 ng/ml VEGFA were followed by treatment with antibody at 20 μg/ml or 40 μg/ml. Results are shown for 8-G17 in FIG. 8 and FIG. 9, 20-H19-AB in FIG. 10 and FIG. 11 (FIG. 12 for monkey ECs), R3-P3-C11 in FIG. 13 and FIG. 14, R4M-P3-E06 in FIG. 15 and FIG. 16, R3-P3-E09 in FIG. 17 and FIG. 18, R3-P1-C02 in FIG. 19 and FIG. 20, R3-P3-A12 in FIG. 21 and FIG. 22, R4M-P3-A12 in FIG. 23 and FIG. 24, and R4M-P1-A10 in FIG. 25 and FIG. 26.

human Sdc2 [4] = biological target: T1, human Sdc2; assay: Octet tandem binning; saturating Ab m3 19844-R3-P1-C02 (row boxed, self-self >0.09)
human Sdc2 [5] = biological target: T1, human Sdc2; assay: Octet tandem binning; saturating Ab m2 19838-8G17-A
mouse Sdc2 = biological target: T3, mouse Sdc2 (mouse, UniProt P43407 19-145, limits assumed); assay: Octet BLI, HIS1K sensor loaded with moSdc2, antibody as sample; Full R2 0.9584
T3 construct: Immobilised on Maxisorp plates for panning and ELISA; also called mSdc2; moSdc2

human Sdc2 [6] = biological target: T1, human Sdc2; assay: Octet BLI, HIS1K sensor loaded with huSdc2, antibody as sample; Full R2 0.9668
Description: as §1

T3 sequence (P43407 19-145 limits assumed): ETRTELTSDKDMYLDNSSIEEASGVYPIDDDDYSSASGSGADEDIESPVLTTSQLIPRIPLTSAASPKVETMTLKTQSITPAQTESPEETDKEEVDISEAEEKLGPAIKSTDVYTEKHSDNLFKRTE
T1 sequence (P34741 19-144 limits assumed): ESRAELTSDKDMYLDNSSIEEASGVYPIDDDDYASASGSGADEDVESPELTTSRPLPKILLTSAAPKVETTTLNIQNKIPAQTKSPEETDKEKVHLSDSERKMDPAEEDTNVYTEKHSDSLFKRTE

B1: R4M-P3-A12 (antibody, human IgG1, kappa, V domains shown)
VH: EVQLVESGGGVVQPGGSLRLSCAASGFTFSDHYMSWIRQAPGKGLEWVSYLSGSGTSIYYADSVKGRFTISRDNAKKSLYLQMNSLRAEDTAVYYCARVGPAAGNAFDIWGQGTMVTVSS
VL: QSVLTQPPSASGTPGQRVTISCSGSSSNIGSNYVYWYQQLPGTAPKLLIYRNNQRPSGVPDRFSGSKSGTSASLAITGLQAEDEADYYCQSYDSSLSGVVFGGGTKLTVLR
- raw competing-Ab binding signal (human Sdc2 [1]): 0.152
- raw competing-Ab binding signal (human Sdc2 [2]): 0.115
- raw competing-Ab binding signal (human Sdc2 [3]): 0.153
- Kd (pig Sdc2): ~15 nM
- raw competing-Ab binding signal (human Sdc2 [4]): 0.0422
- raw competing-Ab binding signal (human Sdc2 [5]): 0.103
- Kd (mouse Sdc2): 11.6 nM
- koff (mouse Sdc2): 0.00914 s⁻¹
- kon (mouse Sdc2): 3.74e+06 M⁻¹ s⁻¹
- Kd (human Sdc2 [6]): 14.4 nM
- koff (human Sdc2 [6]): 0.067 s⁻¹
- kon (human Sdc2 [6]): 4.65e+06 M⁻¹ s⁻¹
